Assays:
[1] = biological target: FcγRIIIA (soluble receptor used as analyte in the BIAcore runs) (human) (UniProt P08637); assay: SPR (BIAcore 3000), IgG amine-coupled to CM5, soluble FcγRIIIA injected; steady-state isotherm; Run 1
[2] = biological target: FcγRIIIA (soluble receptor used as analyte in the BIAcore runs) (human) (UniProt P08637); assay: SPR (BIAcore 3000), IgG amine-coupled to CM5, soluble FcγRIIIA injected; Scatchard plot of Req; Run 1
[3] = biological target: FcγRIIIA (soluble receptor used as analyte in the BIAcore runs) (human) (UniProt P08637); assay: SPR (BIAcore 3000), IgG amine-coupled to CM5, soluble FcγRIIIA injected; steady-state isotherm; Run 2
[4] = biological target: FcγRIIIA (soluble receptor used as analyte in the BIAcore runs) (human) (UniProt P08637); assay: SPR (BIAcore 3000), IgG amine-coupled to CM5, soluble FcγRIIIA injected; Scatchard plot of Req; Run 2
[5] = biological target: FcγRIIB-streptavidin fusion protein (tetramer) (human; Streptomyces avidinii) (UniProt P31994); assay: ELISA: antibody at varied concentration captured on protein A/G, FcγRIIB-streptavidin, biotin-HRP, OD at 450 nm
FcγRIIB-streptavidin fusion protein (tetramer) (human; Streptomyces avidinii), sequence (P31994 43-217 limits assumed): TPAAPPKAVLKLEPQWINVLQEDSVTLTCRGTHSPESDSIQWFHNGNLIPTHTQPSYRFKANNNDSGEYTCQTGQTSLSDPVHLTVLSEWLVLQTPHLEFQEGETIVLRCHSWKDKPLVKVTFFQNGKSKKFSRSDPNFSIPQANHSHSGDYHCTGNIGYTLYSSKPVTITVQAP

FcγRIIIA (soluble receptor used as analyte in the BIAcore runs) (human), sequence (P08637 17-208): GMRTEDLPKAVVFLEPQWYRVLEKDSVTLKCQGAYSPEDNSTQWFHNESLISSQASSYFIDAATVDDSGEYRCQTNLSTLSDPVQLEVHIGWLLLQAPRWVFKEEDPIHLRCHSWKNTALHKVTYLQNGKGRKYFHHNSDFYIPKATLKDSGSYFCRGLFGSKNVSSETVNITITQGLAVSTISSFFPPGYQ

Kd [1]	Kd [2]	Kd [3]	Kd [4]	EC50 (read off the curve) [5]	Substance
3.47 µM	3.26 µM	8.9 µM	7.6 µM	0.3 µg/mL	Vitaxin® (wild type, full length IgG1) (antibody)
0.458 µM	0.458 µM	1.28 µM	1.22 µM	0.3 µg/mL	Vitaxin®-1M (Vitaxin® Fc variant I332E, IgG1) (antibody)
		0.114 µM			Vitaxin®-3M (Vitaxin® Fc variant S239D/A330L/I332E, IgG1) (antibody)

— patent publication US20060040325A1
